For test [1], the target named is T1, P-Rex2 DEP2-IP4P (residues 472-1606) (UniProt Q70Z35 472-1606).
T1 sequence: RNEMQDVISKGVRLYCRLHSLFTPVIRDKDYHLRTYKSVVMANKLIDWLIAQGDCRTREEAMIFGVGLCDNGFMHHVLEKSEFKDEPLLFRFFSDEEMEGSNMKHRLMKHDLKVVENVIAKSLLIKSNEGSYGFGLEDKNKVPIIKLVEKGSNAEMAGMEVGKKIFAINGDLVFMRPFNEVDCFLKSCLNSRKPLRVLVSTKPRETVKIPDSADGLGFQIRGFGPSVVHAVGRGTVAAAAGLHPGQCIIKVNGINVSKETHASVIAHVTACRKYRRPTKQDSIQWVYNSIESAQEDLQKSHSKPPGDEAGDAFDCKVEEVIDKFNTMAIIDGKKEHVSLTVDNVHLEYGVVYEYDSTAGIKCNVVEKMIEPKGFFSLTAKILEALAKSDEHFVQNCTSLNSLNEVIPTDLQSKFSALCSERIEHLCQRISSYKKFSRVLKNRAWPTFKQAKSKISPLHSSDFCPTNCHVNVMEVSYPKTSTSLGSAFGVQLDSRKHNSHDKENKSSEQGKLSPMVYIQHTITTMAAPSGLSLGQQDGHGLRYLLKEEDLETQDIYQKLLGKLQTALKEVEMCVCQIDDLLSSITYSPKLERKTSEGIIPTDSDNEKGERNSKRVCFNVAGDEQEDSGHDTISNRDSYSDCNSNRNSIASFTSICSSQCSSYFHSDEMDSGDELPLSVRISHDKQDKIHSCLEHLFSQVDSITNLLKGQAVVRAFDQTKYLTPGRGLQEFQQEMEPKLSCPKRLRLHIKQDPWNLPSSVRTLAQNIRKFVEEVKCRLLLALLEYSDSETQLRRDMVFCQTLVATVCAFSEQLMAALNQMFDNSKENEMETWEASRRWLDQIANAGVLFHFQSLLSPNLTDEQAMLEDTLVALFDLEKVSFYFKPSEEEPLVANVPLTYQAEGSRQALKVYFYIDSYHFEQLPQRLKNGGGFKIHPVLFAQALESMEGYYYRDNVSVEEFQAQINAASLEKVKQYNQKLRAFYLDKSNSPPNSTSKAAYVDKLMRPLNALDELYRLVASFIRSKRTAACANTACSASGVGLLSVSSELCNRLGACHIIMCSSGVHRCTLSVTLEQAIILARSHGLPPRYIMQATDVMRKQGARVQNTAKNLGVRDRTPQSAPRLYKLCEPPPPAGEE
The experiment in a line: SPR. (In general: SPR reads the build-up and loss of mass on a sensor chip optically.)

Test [2] deals with P-Rex2 (WT), recombinant full-length (UniProt Q70Z35 1-1606). Put plainly: pull-down.

B1: PTEN (WT), recombinant insect-cell purified (natural protein)
chain: not shown
As for B1, the binding result in test [1] and in test [2] was “binds” each time.

The values above are taken from doi:10.1101/2020.04.11.036434 (bioRxiv, 2020).
